Data from the supplement of paper PMC10724198.
± gives the standard deviation of the averaged measurements.

Test system: Saccharomyces cerevisiae
Experiment: protein stability index of tFT-peptide fusion (C-terminal peptide) (PSI (0-1 scale)); higher = more stable (slower turnover)
Conditions: genetic background: wild type; temperature: 30 C
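Also: PSI is a weighted mean of sequencing reads over stability bins, variants kept only with over 10 reads, mCherry proximal and sfGFP distal, peptide attached via GGGS linker.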

| Sequence | protein stability index |
| --- | --- |
| VDRDWFLKRDSH | 0.711 ± 0.031 |
| VDTTISVCCSVC | 0.68339 ± 0.00029 |
| VDVSGIKAGRPW | 0.681 ± 0.011 |
| VEAFIVDETRVV | 0.6984 ± 0.0064 |
| VEAGDYAWDEAA | 0.657 ± 0.056 |
| VECVPFAPPRPH | 0.68 ± 0.14 |
| VEEKDNNVRYVL | 0.697 ± 0.025 |
| VEHVRIGGGGKS | 0.7 ± 0.013 |
| VEQISYATIAFV | 0.608 ± 0.061 |
| VERIALIPASRQ | 0.706 ± 0.035 |
| VERRNAVGTDEK | 0.611 ± 0.063 |
| VEVCLLRRWFGL | 0.667 ± 0.055 |
| VEWGGDGVFWTG | 0.8 ± 0.023 |
| VFALFRLSSLDK | 0.673 ± 0.074 |
| VFALPPAPPPSP | 0.722 ± 0.062 |
| VFCPGWRKCNDP | 0.661 ± 0.043 |
| VFEVNPRFDKLV | 0.758 ± 0.016 |
| VFFCHFRFTPPS | 0.692 ± 0.059 |
| VFFDLALRWYGV | 0.748 ± 0.082 |
| VFGDFAIGGLSG | 0.711 ± 0.077 |
| VFGLSPLLQPSD | 0.654 ± 0.0086 |
| VFGRHSNRSPLY | 0.808 ± 0.07 |
| VFLGCCWVHFFY | 0.534 ± 0.0062 |
| VFLILKPRDLTE | 0.667 ± 0.01 |
| VFLSITHFESRV | 0.723 ± 0.055 |

| Sequence | protein stability index |
| --- | --- |
| VFPIISYPHTKS | 0.6779 ± 0.0064 |
| VFPPRPPRAFPP | 0.662 ± 0.00098 |
| VFPYGVSRGALL | 0.66 ± 0.011 |
| VFRFRARRYNES | 0.655 ± 0.079 |
| VFSFFNFCFCFY | 0.615 ± 0.06 |
| VFSTRLTSWYLT | 0.555 ± 0.01 |
| VFVGCRECKLCA | 0.57592 ± 7.6e-05 |
| VFVLEGSSTPRS | 0.6487 ± 0.0011 |
| VFVRSTSFLFFG | 0.678 ± 0.0097 |
| VGAAVFGARWGA | 0.689 ± 0.037 |
| VGACLEVWDGVR | 0.686 ± 0.024 |
| VGAEGWAVAGDM | 0.77 ± 0.078 |
| VGAGGSLPLNKV | 0.6928 ± 0.0062 |
| VGAPGGVETTKA | 0.685 ± 0.015 |
| VGARAIITIEFG | 0.598 ± 0.018 |
| VGASFVAVGVEG | 0.641 ± 0.041 |
| VGAWGLMLASVV | 0.5698 ± 0.0055 |
| VGAWRGVLVGGG | 0.612 ± 0.0068 |
| VGCFLDSLWDWV | 0.679 ± 0.022 |
| VGCGCVRGYWFG | 0.734 ± 0.018 |
| VGCPKMTKIFFV | 0.594 ± 0.028 |
| VGCVFVASRLVL | 0.627 ± 0.038 |
| VGCWLLGYFAHQ | 0.675 ± 0.0095 |
| VGDGAVGKTRGD | 0.681 ± 0.039 |
| VGDVGESMWGLG | 0.727 ± 0.091 |

| Sequence | protein stability index |
| --- | --- |
| VGEGWGAMIMQE | 0.737 ± 0.038 |
| VGEGWWQKGMEV | 0.676 ± 0.079 |
| VGEVLCVGGAFY | 0.659 ± 0.024 |
| VGFISRIKSLYV | 0.648 ± 0.0096 |
| VGGCRVLCVGLG | 0.651 ± 0.06 |
| VGGGCGVRVVVV | 0.684 ± 0.05 |
| VGGGEVRAWGLR | 0.661 ± 0.008 |
| VGGGGGGCLVDC | 0.653 ± 0.028 |
| VGGGVGGRDGAS | 0.659 ± 0.051 |
| VGGRGGGRGVVG | 0.672 ± 0.0073 |
| VGGRLRECVRVG | 0.628 ± 0.078 |
| VGGRVGERRGAP | 0.656 ± 0.044 |
| VGGVWGGGWGHW | 0.736 ± 0.021 |
| VGGWGGFGLFFP | 0.742 ± 0.098 |
| VGIGLTLSLRFS | 0.598 ± 0.0066 |
| VGLGEWMGALGV | 0.6634 ± 0.006 |
| VGLGFVVNAPGL | 0.73 ± 0.1 |
| VGLRPPRPAPPS | 0.623 ± 0.035 |
| VGMCVGEVVAIV | 0.521 ± 0.015 |
| VGPDGFWGVVLG | 0.719 ± 0.023 |
| VGPVGSVGVGGR | 0.654 ± 0.013 |
| VGPWQVQRLLWT | 0.623 ± 0.056 |
| VGRLGPMVGLLL | 0.6 ± 0.083 |
| VGRRDNHPTEKT | 0.73 ± 0.025 |
| VGRRTRGHDGVT | 0.659 ± 0.078 |

| Sequence | protein stability index |
| --- | --- |
| VGSGEVFEVMEG | 0.64 ± 0.036 |
| VGSSSRSLFWCF | 0.689 ± 0.04 |
| VGSWSVICGGVL | 0.6929 ± 0.0061 |
| VGTGPGLKRPCH | 0.774 ± 0.035 |
| VGVEIKITKEKK | 0.739 ± 0.038 |
| VGVGPVGDVWLI | 0.6979 ± 0.0027 |
| VGWRCWVGSVGL | 0.6686 ± 0.0029 |
| VGYGRGGAVGVE | 0.695 ± 0.012 |
| VHLCLPPLPLHT | 0.651 ± 0.019 |
| VHPHPRSIKRER | 0.6324 ± 0.0026 |
| VIARALGLFLSD | 0.693 ± 0.035 |
| VIEIGEYSGNGK | 0.707 ± 0.046 |
| VIFFLPWYTPHP | 0.6919 ± 0.0023 |
| VIGSKQERRAEK | 0.6905 ± 0.0016 |
| VIGWSGGCRWSV | 0.73 ± 0.027 |
| VIKESKKKTKKI | 0.544 ± 0.044 |
| VIPYLISSLYAV | 0.691 ± 0.13 |
| VIRDISAFSQVV | 0.677 ± 0.07 |
| VKGRKNEGPGKR | 0.748 ± 0.065 |
| VKGYGLILQISV | 0.56537 ± 0.00043 |
| VKKHRQTNGMVY | 0.739 ± 0.018 |
| VKVYHVPSTFSV | 0.681 ± 0.029 |
| VLCGALRIVGHK | 0.603 ± 0.017 |
| VLCKDGHRGFGC | 0.589 ± 0.057 |
| VLCLRSNRHGVF | 0.698 ± 0.015 |

| Sequence | protein stability index |
| --- | --- |
| VLCRVALWGVGG | 0.653 ± 0.02 |
| VLEGAWPGAEAV | 0.722 ± 0.083 |
| VLFCQLFCDFFG | 0.631 ± 0.084 |
| VLFGLFAPCFLF | 0.59 ± 0.019 |
| VLFGSVSCCLLW | 0.686 ± 0.043 |
| VLFLLSGPAILL | 0.682 ± 0.0075 |
| VLFSSDLIVPQL | 0.725 ± 0.018 |
| VLGGLGWVCWVV | 0.531 ± 0.013 |
| VLGLALYTLSTS | 0.68 ± 0.041 |
| VLLAVGELFRVD | 0.649 ± 0.0084 |
| VLLEGCQSYVIW | 0.652 ± 0.03 |
| VLLLGYDRGWDD | 0.718 ± 0.015 |
| VLLLLPASTPSL | 0.696 ± 0.079 |
| VLMGAGGHSWER | 0.725 ± 0.037 |
| VLNCVGLSLLVE | 0.6068 ± 0.00076 |
| VLPPLPGPPTLS | 0.6945 ± 0.0033 |
| VLPPPRHPLPRP | 0.698 ± 0.04 |
| VLSCCTAVAYPF | 0.593 ± 0.028 |
| VLSLLPSLLPPF | 0.7408 ± 0.0061 |
| VLSSSPFLHFGC | 0.663 ± 0.072 |
| VLSVGQVGRCVS | 0.642 ± 0.043 |
| VLTWGLLGRSAF | 0.729 ± 0.063 |
| VLYCYPYLVLPP | 0.678 ± 0.013 |
| VNATDYDGQPIT | 0.679 ± 0.11 |
| VNENNQKGNKKT | 0.654 ± 0.12 |

| Sequence | protein stability index |
| --- | --- |
| VNIHVCSYGIFA | 0.5071 ± 0.0025 |
| VNKNKKNVEYIK | 0.657 ± 0.013 |
| VNQVRVSICDLL | 0.69263 ± 0.00047 |
| VPCLVHEVYDEV | 0.732 ± 0.029 |
| VPFPHALLSALP | 0.638 ± 0.037 |
| VPGIGGGVSVRG | 0.612 ± 0.14 |
| VPLCSGKLAQIS | 0.757 ± 0.0085 |
| VPLPPPFPASLT | 0.61 ± 0.027 |
| VPPHSLPPPTHP | 0.753 ± 0.048 |
| VPPPPPSRSRPV | 0.713 ± 0.032 |
| VPPPTRRTPPAP | 0.734 ± 0.052 |
| VPPVLRPLPPSP | 0.72 ± 0.025 |
| VPRFTPYRAIFP | 0.591 ± 0.016 |
| VPRTPPTTSWFP | 0.682 ± 0.026 |
| VPSPHLQPTVSP | 0.654 ± 0.0074 |
| VPTELGGTLIPT | 0.664 ± 0.11 |
| VPVRLRSGGVSP | 0.66 ± 0.058 |
| VPVVQPNRSALI | 0.7454 ± 0.0071 |
| VQQSRTQKDQHV | 0.623 ± 0.054 |
| VQRPALPPRHPP | 0.612 ± 0.005 |
| VRARRSSREVNY | 0.755 ± 0.05 |
